Measurements as given in patent US20110158985A1 (published 2011).
Where “and” joins values, the source holds several entries; their conditions need not be identical. Identical values can stand only once. Like-named read-outs stand apart in the source and are kept apart here.

T1: murine FcRn (mouse, UniProt P01887 21-119)
T1 construct: also called mouse FcRn; muFcRn
T1 sequence: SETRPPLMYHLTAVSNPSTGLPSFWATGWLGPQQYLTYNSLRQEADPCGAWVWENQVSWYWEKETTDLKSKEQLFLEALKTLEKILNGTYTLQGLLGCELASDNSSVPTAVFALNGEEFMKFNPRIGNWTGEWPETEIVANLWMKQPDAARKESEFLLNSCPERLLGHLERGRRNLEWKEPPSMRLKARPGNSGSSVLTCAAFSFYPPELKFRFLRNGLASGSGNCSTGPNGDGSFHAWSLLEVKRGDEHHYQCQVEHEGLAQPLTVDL
T1 sequence (b2m): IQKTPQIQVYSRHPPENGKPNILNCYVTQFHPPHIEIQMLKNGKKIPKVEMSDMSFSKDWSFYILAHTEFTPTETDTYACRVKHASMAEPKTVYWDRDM

T2: RSV F glycoprotein (NUF4) (respiratory syncytial virus)
T2 chain 1: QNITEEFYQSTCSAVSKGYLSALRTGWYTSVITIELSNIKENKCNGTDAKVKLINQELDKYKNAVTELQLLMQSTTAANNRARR
T2 chain 2: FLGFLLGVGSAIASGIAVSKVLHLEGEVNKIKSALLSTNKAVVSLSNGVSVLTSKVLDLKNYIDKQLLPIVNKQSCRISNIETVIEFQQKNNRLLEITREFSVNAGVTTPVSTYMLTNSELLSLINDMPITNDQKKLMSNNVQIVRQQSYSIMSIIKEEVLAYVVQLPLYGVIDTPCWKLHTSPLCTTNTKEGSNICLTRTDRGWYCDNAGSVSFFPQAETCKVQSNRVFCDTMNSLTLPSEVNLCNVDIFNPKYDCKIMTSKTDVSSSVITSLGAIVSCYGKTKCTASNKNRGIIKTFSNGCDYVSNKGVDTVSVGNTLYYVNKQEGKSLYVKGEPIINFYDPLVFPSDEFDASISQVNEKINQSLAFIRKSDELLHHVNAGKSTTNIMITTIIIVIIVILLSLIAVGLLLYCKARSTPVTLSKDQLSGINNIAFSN


Key:
murine FcRn = target: T1, murine FcRn; test: SPR (BIAcore 3000), FcRn over immobilised IgG1, pH 6.0, Scatchard
Method: IgG1 variants was monitored by surface plasmon resonance detection using a BIAcore 3000 instrument (Pharmacia Biosensor, Uppsala, Sweden). […] The protein concentrations ranged from 3-5 μg/ml in 10 mM sodium acetate, pH 5.0. The activation period was set for 7 minutes at a flow rate of 10 μl/min and the immobilization period was set to between 10 and 20 minutes at a flow rate of 10 μl/min. […] Human and murine FcRn were buffer exchanged against 50 mM PBS buffer pH 6.0 containing 0.05% Tween 20. Dilutions were made in the same buffer. All binding experiments were performed at 25° C. with concentrations ranging from 120 to 1 μg/ml at a flow rate of 5 to 10 μl/min; data were collected for 25 to 50 minutes and three 1-minute pulses of PBS buffer pH 7.2 were used to regenerate the surfaces. FcRn was also flowed over an uncoated cell and the sensorgrams from these blank runs subtracted from those obtained with IgG1-coupled chips. Runs were analyzed using the software BIAevaluation 3.1 (Pharmacia). Association constants (KAs) were determined from Scatchard analysis by measuring the concentration of free reactants and complex at equilibrium after correction for nonspecific binding.

[1] = target: T3, F protein of RSV (Long strain) (RSV (Long strain), UniProt P12568 26-574); test: cell-based or functional assay
[2] = target: T3, F protein of RSV (Long strain); test: cell-based or functional assay; remark: listed apart in the source
[3] = target: T2, RSV F glycoprotein (NUF4); test: SPR (BIAcore), mAb vs NUF4 (1:1)
[4] = target: T2, RSV F glycoprotein (NUF4); test: SPR (BIAcore), mAb vs NUF4 (2:1)
Bac-F = Bac-F (respiratory syncytial virus); test: SPR (BIAcore), mAb vs Bac-F (1:1)
[5] = target: T4, recombinant C-terminally truncated RSV (A2 strain) F protein (RSV (A2 strain), UniProt P03420 26-524); test: SPR (BIAcore), IgG over immobilised F
T4 construct: extracellular domain; also called truncated F protein; extracellular domain of the F protein from RSV A2

[6] = target: T3, F protein of RSV (Long strain); test: cell-based or functional assay; remark: listed apart in the source
RSV F protein (purified) = RSV F protein (purified) (respiratory syncytial virus); test: SPR (BIAcore), F protein immobilised
[7] = target: T4, recombinant C-terminally truncated RSV …; test: SPR (BIAcore), Fab over immobilised F
[8] = target: T4, recombinant C-terminally truncated RSV …; test: SPR (BIAcore), Fab over immobilised F; remark: listed apart in the source

| Binder | Mean IC50 (Control) [1] [µg/mL] | Mean IC50 (Curve) [1] [µg/mL] | Microneutralization IC50, IgG [2] | Kd [3] [nM] | fold in parentheses (palivizumab = 1) [3] [fold] | koff [3] [s⁻¹] | kon [3] [M⁻¹ s⁻¹] | Kd [4] [nM] | fold in parentheses (palivizumab = 1) [4] [fold] | koff [4] [s⁻¹] | kon [4] [M⁻¹ s⁻¹] | Kd (Bac-F) [nM] | fold in parentheses (palivizumab = 1) (Bac-F) [fold] | Kd [5] [nM] | koff [5] [s⁻¹] | kon [5] [M⁻¹ s⁻¹] | Microneutralization IC50, Fab [6] | Kd [7] [nM] | koff [7] [s⁻¹] | kon [7] [M⁻¹ s⁻¹] | also measured |
| --- | --- | --- | --- | --- | --- | --- | --- | --- | --- | --- | --- | --- | --- | --- | --- | --- | --- | --- | --- | --- | --- |
| human IgG1 MEDI-493 (palivizumab) H433K/N434F/Y436H (antibody) heavy: QVTLRESGPALVKPTQTLTLTCTFSGFSLSTSGMSVGWIRQPPGKALEWLADIWWDDKKDYNPSLKSRLTISKDTSKNQVVLKVTNMDPADTATYYCARSMITNWYFDVWGAGTTVTVSSASTKGPSVFPLAPSSKSTSGGTAALGCLVKDYFPEPVTVSWNSGALTSGVHTFPAVLQSSGLYSLSSVVTVPSSSLGTQTYICNVNHKPSNTKVDKRVEPKSCDKTHTCPPCPAPELLGGPSVFLFPPKPKDTLMISRTPEVTCVVVDVSHEDPEVKFNWYVDGVEVHNAKTKPREEQYNSTYRVVSVLTVLHQDWLNGKEYKCKVSNKALPAPIEKTISKAKGQPREPQVYTLPPSREEMTKNQVSLTCLVKGFYPSDIAVEWESNGQPENNYKTTPPVLDSDGSFFLYSKLTVDKSRWQQGNVFSCSVMHEALKFHHTQKSLSLSPGK light: DIQMTQSPSTLSASVGDRVTITCKCQLSVGYMHWYQQKPGKAPKLLIYDTSKLASGVPSRFSGSGSGTEFTLTISSLQPDDFATYYCFQGSGYPFTFGGGTKLEIKRTVAAPSVFIFPPSDEQLKSGTASVVCLLNNFYPREAKVQWKVDNALQSGNSQESVTEQDSKDSTYSLSSTLTLSKADYEKHKVYACEVTHQGLSSPVTKSFNRGEC |  |  |  |  |  |  |  |  |  |  |  |  |  |  |  |  |  |  |  |  | Kd (murine FcRn): 14 nM; ΔΔG (murine FcRn): 1.8 kcal/mol |
| human IgG1 MEDI-493 (palivizumab) M252W (antibody) heavy: not shown light: DIQMTQSPSTLSASVGDRVTITCKCQLSVGYMHWYQQKPGKAPKLLIYDTSKLASGVPSRFSGSGSGTEFTLTISSLQPDDFATYYCFQGSGYPFTFGGGTKLEIKRTVAAPSVFIFPPSDEQLKSGTASVVCLLNNFYPREAKVQWKVDNALQSGNSQESVTEQDSKDSTYSLSSTLTLSKADYEKHKVYACEVTHQGLSSPVTKSFNRGEC |  |  |  |  |  |  |  |  |  |  |  |  |  |  |  |  |  |  |  |  | Kd (murine FcRn): 30 nM; ΔΔG (murine FcRn): 1.3 kcal/mol |
| A1e9 IgG (antibody, V domains shown, also called Ale9) VH: QVTLRESGPALVKPTQTLTLTCTFSGFSLSTAGMSVGWIRQPPGKALEWLADIWWDGKKHYNPSLKDRLTISKDTSKNQVVLKVTNMDPADTATYYCARDMIFNWYFDVWGQGTTVTVSS VL: DIQMTQSPSTLSASVGDRVTITCSLSSRVGYMHWYQQKPGKAPKLLIYDTFKLSSGVPSRFSGSGSGTEFTLTISSLQPDDFATYYCFQGSGYPFTFGGGTKVEIKR | 0.0645 | 0.0625 | 0.0625 µg/ml and 0.42 nM | 0.69 | 13 | 0.000584 | 843000 | 4.22 | 74 | 0.00139 | 329000 | 0.33 | 12 | 0.33 | 0.000143 | 433000 |  |  |  |  |  |
| 1X-493L1FR Fab (Fab, V domains shown, also called IX-493L1FR) VH: QVTLRESGPALVKPTQTLTLTCTFSGFSLSTSGMSVGWIRQPPGKALEWLADIWWDDKKDYNPSLKSRLTISKDTSKNQVVLKVTNMDPADTATYYCARSMITNWYFDVWGQGTTVTVSS VL: DIQMTQSPSTLSASVGDRVTITCSASSSVGYMHWYQQKPGKAPKLLIYDTSKLASGVPSRFSGSGSGTEFTLTISSLQPDDFATYYCFQGSGYPFTFGGGTKVEIK |  |  |  |  |  |  |  |  |  |  |  |  |  |  |  |  | 26.3 µg/ml and 526 nM | 3.52 | 0.000651 | 185000 | koff (RSV F protein (purified)): 0.00065 s⁻¹; kon (RSV F protein (purified)): 185000 M⁻¹ s⁻¹ |
| P12f4 IgG (antibody, V domains shown) VH: QVTLRESGPALVKPTQTLTLTCTFSGFSLSTPGMSVGWIRQPPGKALEWLADIWWDGKKHYNPSLKDRLTISKDTSKNQVVLKVTNMDPADTATYYCARDMIFNFYFDVWGQGTTVTVSS VL: DIQMTQSPSTLSASVGDRVTITCSLSSRVGYMHWYQQKPGKAPKLLIYDTRGLPSGVPSRFSGSGSGTEFTLTISSLQPDDFATYYCFQGSGYPFTFGGGTKVEIKR | 0.0235 | 0.0242 | 0.242 µg/ml and 0.16 nM | 0.24 | 36 | 0.000229 | 943000 | 2.33 | 134 | 0.000636 | 273000 | 0.11 | 35 | 0.112 | 5.55e-05 | 495000 |  |  |  |  |  |
| S52F Fab (Fab, name in Kabat numbering, V domains shown) VH: QVTLRESGPALVKPTQTLTLTCTFSGFSLSTSGMSVGWIRQPPGKALEWLADIWWDDKKDYNPSLKSRLTISKDTSKNQVVLKVTNMDPADTATYYCARSMITNWYFDVWGQGTTVTVSS VL: DIQMTQSPSTLSASVGDRVTITCSASSSVGYMHWYQQKPGKAPKLLIYDTFKLASGVPSRFSGSGSGTEFTLTISSLQPDDFATYYCFQGSGYPFTFGGGTKVEIK |  |  |  |  |  |  |  |  |  |  |  |  |  |  |  |  | 7.27 µg/ml and 1.45 µM | 0.85 | 0.000175 | 206000 |  |
| palivizumab Fab (recombinant) (Fab, V domains shown) VH: QVTLRESGPALVKPTQTLTLTCTFSGFSLSTSGMSVGWIRQPPGKALEWLADIWWDDKKDYNPSLKSRLTISKDTSKNQVVLKVTNMDPADTATYYCARSMITNWYFDVWGAGTTVTVSS VL: DIQMTQSPSTLSASVGDRVTITCKCQLSVGYMHWYQQKPGKAPKLLIYDTSKLASGVPSRFSGSGSGTEFTLTISSLQPDDFATYYCFQGSGYPFTFGGGTKLEIK |  |  |  |  |  |  |  |  |  |  |  |  |  |  |  |  | 27.5 µg/ml and 549 nM | 5.25 |  |  | Microneutralization IC50, Fab [2]: 27.5 µg/ml and 549 nM; Kd [8]: 5.25 nM |
| S52Y Fab (Fab, name in Kabat numbering, V domains shown) VH: QVTLRESGPALVKPTQTLTLTCTFSGFSLSTSGMSVGWIRQPPGKALEWLADIWWDDKKDYNPSLKSRLTISKDTSKNQVVLKVTNMDPADTATYYCARSMITNWYFDVWGQGTTVTVSS VL: DIQMTQSPSTLSASVGDRVTITCSASSSVGYMHWYQQKPGKAPKLLIYDTYKLASGVPSRFSGSGSGTEFTLTISSLQPDDFATYYCFQGSGYPFTFGGGTKVEIK |  |  |  |  |  |  |  |  |  |  |  |  |  |  |  |  | 5.99 µg/ml and 120 nM | 0.74 | 0.000125 | 170000 |  |
| A8c7 IgG (antibody, V domains shown) VH: QVTLRESGPALVKPTQTLTLTCTFSGFSLSTAGMSVGWIRQPPGKALEWLADIWWDDKKSYNPSLKDRLTISKDTSKNQVVLKVTNMDPADTATYYCARDMIFNWYFDVWGQGTTVTVSS VL: DIQMTQSPSTLSASVGDRVTITCSPSSRVGYMHWYQQKPGKAPKLLIYDTRYQSSGVPSRFSGSGSGTEFTLTISSLQPDDFATYYCFQGSGYPFTFGGGTKVEIKR | 0.0383 | 0.0337 | 0.0337 µg/ml and 0.22 nM | 0.65 | 13 | 0.000535 | 825000 | 2.65 | 118 | 0.00114 | 430000 | 0.21 | 19 | 0.21 | 8.75e-05 | 417000 |  |  |  |  |  |
| P12f2 IgG (antibody, V domains shown) VH: QVTLRESGPALVKPTQTLTLTCTFSGFSLSTPGMSVGWIRQPPGKALEWLADIWWDDKKHYNPSLKDRLTISKDTSKNQVVLKVTNMDPADTATYYCARDMIFNFYFDVWGQGTTVTVSS VL: DIQMTQSPSTLSASVGDRVTITCSLSSRVGYMHWYQQKPGKAPKLLIYDTFYLSSGVPSRFSGSGSGTEFTLTISSLQPDDFATYYCFQGSGYPFTFGGGTKVEIKR | 0.0223 | 0.0231 | 0.0231 µg/ml and 0.15 nM | 0.33 | 26 | 0.000178 | 541000 | 0.84 | 371 | 0.000236 | 282000 | 0.31 | 13 | 0.314 | 0.000128 | 407000 |  |  |  |  |  |
